Measurements from patent US11325966.

Tests used:
Assay in all cases: cell-based or functional assay
[1] = biological target: HIV-1 Env of pseudovirus R1166.c01 (HIV-1)
[2] = biological target: HIV-1 Env of pseudovirus 3365.v2.c2 (HIV-1)
[3] = biological target: HIV-1 Env of pseudovirus 928-28 (HIV-1)
[4] = biological target: HIV-1 Env of pseudovirus BJOX010000.06.2 (HIV-1)
[5] = biological target: HIV-1 Env of pseudovirus Du156.12 (HIV-1)
[6] = biological target: HIV-1 Env of pseudovirus Ce2060_G9 (HIV-1)
[7] = biological target: HIV-1 Env of pseudovirus 3415.v1.c1 (HIV-1)
[8] = biological target: HIV-1 Env of pseudovirus 6244_13_B5_4576 (HIV-1)
[9] = biological target: HIV-1 Env of pseudovirus C2101.c01 (HIV-1)
[10] = biological target: HIV-1 Env of pseudovirus HIV-16845-2.22 (HIV-1)
[11] = biological target: HIV-1 Env of pseudovirus CNE8 (HIV-1)
[12] = biological target: HIV-1 Env of pseudovirus Ce2010_F5 (HIV-1)
[13] = biological target: HIV-1 Env of pseudovirus 6545.v4.c1 (HIV-1)
[14] = biological target: HIV-1 Env of pseudovirus 89-F1_2_25 (HIV-1)
[15] = biological target: HIV-1 Env of pseudovirus 211-9 (HIV-1)
[16] = biological target: HIV-1 Env of pseudovirus CNE58 (HIV-1)
[17] = biological target: HIV-1 Env of pseudovirus ZM233M.PB6 (HIV-1)
[18] = biological target: HIV-1 Env of pseudovirus BJOX028000.10.3 (HIV-1)
[19] = biological target: HIV-1 Env of pseudovirus X1193_c1 (HIV-1)
[20] = biological target: HIV-1 Env of pseudovirus CNE52 (HIV-1)
[21] = biological target: HIV-1 Env of pseudovirus TRJO4551.58 (HIV-1)
[22] = biological target: HIV-1 Env of pseudovirus 6952.v1.c20 (HIV-1)
[23] = biological target: HIV-1 Env of pseudovirus 620345.c01 (HIV-1)
[24] = biological target: HIV-1 Env of pseudovirus CNE30 (HIV-1)
[25] = biological target: HIV-1 Env of pseudovirus R2184.c04 (HIV-1)
[26] = biological target: HIV-1 Env of pseudovirus 191084 B7-19 (HIV-1)
[27] = biological target: HIV-1 Env of pseudovirus T278-50 (HIV-1)
[28] = biological target: HIV-1 Env of pseudovirus WEAU_d15_410_787 (HIV-1)
[29] = biological target: HIV-1 Env of pseudovirus QH0692.42 (HIV-1)
[30] = biological target: HIV-1 Env of pseudovirus SC422661.8 (HIV-1)
[31] = biological target: HIV-1 Env of pseudovirus X2131_C1_B5 (HIV-1)
[32] = biological target: HIV-1 Env of pseudovirus Ce0682_E4 (HIV-1)
[33] = biological target: HIV-1 Env of pseudovirus Q259.d2.17 (HIV-1)
[34] = biological target: HIV-1 Env of pseudovirus 9004SS_A3_4 (HIV-1)
[35] = biological target: HIV-1 Env of pseudovirus T257-31 (HIV-1)
[36] = biological target: HIV-1 Env of pseudovirus Ce1172_H1 (HIV-1)
[37] = biological target: HIV-1 Env of pseudovirus CNE17 (HIV-1)
[38] = biological target: HIV-1 Env of pseudovirus CNE53 (HIV-1)
[39] = biological target: HIV-1 Env of pseudovirus 249M B10 (HIV-1)
[40] = biological target: HIV-1 Env of pseudovirus X2088_c9 (HIV-1)

PGT121 (antibody)
IC50 in TZM-bl assay [1]: > 10 µg/mL | IC80 in TZM-bl assay [1]: > 10 µg/mL | IC50 in TZM-bl assay [2]: 0.243 µg/mL | IC80 in TZM-bl assay [2]: 2.13 µg/mL | IC50 in TZM-bl assay [3]: > 10 µg/mL | IC80 in TZM-bl assay [3]: > 10 µg/mL | IC50 in TZM-bl assay [4]: > 10 µg/mL | IC80 in TZM-bl assay [4]: > 10 µg/mL | IC50 in TZM-bl assay [5]: 6 ng/mL | IC80 in TZM-bl assay [5]: 0.019 µg/mL | IC50 in TZM-bl assay [6]: > 10 µg/mL | IC80 in TZM-bl assay [6]: > 10 µg/mL | IC50 in TZM-bl assay [7]: > 10 µg/mL | IC80 in TZM-bl assay [7]: > 10 µg/mL | IC50 in TZM-bl assay [8]: 0.172 µg/mL | IC80 in TZM-bl assay [8]: 1.47 µg/mL | IC50 in TZM-bl assay [9]: > 10 µg/mL | IC80 in TZM-bl assay [9]: > 10 µg/mL | IC50 in TZM-bl assay [10]: 8.51 µg/mL | IC80 in TZM-bl assay [10]: > 10 µg/mL | IC50 in TZM-bl assay [11]: > 10 µg/mL | IC80 in TZM-bl assay [11]: > 10 µg/mL | IC50 in TZM-bl assay [12]: > 10 µg/mL | IC80 in TZM-bl assay [12]: > 10 µg/mL | IC50 in TZM-bl assay [13]: > 10 µg/mL | IC80 in TZM-bl assay [13]: > 10 µg/mL | IC50 in TZM-bl assay [14]: > 10 µg/mL | IC80 in TZM-bl assay [14]: > 10 µg/mL | IC50 in TZM-bl assay [15]: 0.866 µg/mL | IC80 in TZM-bl assay [15]: 6.63 µg/mL | IC50 in TZM-bl assay [16]: > 10 µg/mL | IC80 in TZM-bl assay [16]: > 10 µg/mL | IC50 in TZM-bl assay [17]: 2.81 µg/mL | IC80 in TZM-bl assay [17]: > 10 µg/mL | IC50 in TZM-bl assay [18]: > 10 µg/mL | IC80 in TZM-bl assay [18]: > 10 µg/mL | IC80 in TZM-bl assay [19]: 0.088 µg/mL | IC50 in TZM-bl assay [20]: 4.91 µg/mL | IC80 in TZM-bl assay [20]: > 10 µg/mL | IC50 in TZM-bl assay [21]: 0.802 µg/mL | IC80 in TZM-bl assay [21]: > 10 µg/mL | IC80 in TZM-bl assay [22]: 0.348 µg/mL | IC50 in TZM-bl assay [23]: > 10 µg/mL | IC80 in TZM-bl assay [23]: > 10 µg/mL | IC50 in TZM-bl assay [24]: 0.088 µg/mL | IC80 in TZM-bl assay [24]: 0.288 µg/mL | IC50 in TZM-bl assay [25]: > 10 µg/mL | IC80 in TZM-bl assay [25]: > 10 µg/mL | IC50 in TZM-bl assay [26]: 0.038 µg/mL | IC80 in TZM-bl assay [26]: 0.118 µg/mL | IC50 in TZM-bl assay [27]: > 10 µg/mL | IC80 in TZM-bl assay [27]: > 10 µg/mL | IC50 in TZM-bl assay [28]: 0.017 µg/mL | IC80 in TZM-bl assay [28]: 0.062 µg/mL | IC50 in TZM-bl assay [29]: 0.498 µg/mL | IC80 in TZM-bl assay [29]: 8.51 µg/mL | IC50 in TZM-bl assay [30]: 0.079 µg/mL | IC80 in TZM-bl assay [30]: 0.373 µg/mL | IC80 in TZM-bl assay [31]: 0.037 µg/mL | IC50 in TZM-bl assay [32]: > 10 µg/mL | IC80 in TZM-bl assay [32]: > 10 µg/mL | IC50 in TZM-bl assay [33]: 3.07 µg/mL | IC80 in TZM-bl assay [33]: > 10 µg/mL | IC50 in TZM-bl assay [34]: 6 ng/mL | IC50 in TZM-bl assay [35]: > 10 µg/mL | IC80 in TZM-bl assay [35]: > 10 µg/mL | IC50 in TZM-bl assay [36]: 7 ng/mL | IC80 in TZM-bl assay [36]: 0.03 µg/mL | IC50 in TZM-bl assay [37]: 3.96 µg/mL | IC80 in TZM-bl assay [37]: > 10 µg/mL | IC50 in TZM-bl assay [38]: 0.014 µg/mL | IC80 in TZM-bl assay [38]: 0.062 µg/mL | IC50 in TZM-bl assay [39]: > 10 µg/mL | IC80 in TZM-bl assay [39]: > 10 µg/mL | IC50 in TZM-bl assay [40]: 7 ng/mL
